The values below are quoted from earlier work in publication PMC7465696.

This data set has as its target HP1β CSD (Homo sapiens) (UniProt P83916). Briefly: sedimentation analysis.

For orientation: Kd means a measure of binding affinity in units of concentration. For HP1β CSD (from UniProt P83916), the Kd was less than 150 nM.
